Data reported in patent US20030148958A1 (PROCTER AND GAMBLE, published 2003).
Ends that are not written are not given here.

T1: CRF2R
T1 sequence (Q13324 whole entry, species assumed, looked up): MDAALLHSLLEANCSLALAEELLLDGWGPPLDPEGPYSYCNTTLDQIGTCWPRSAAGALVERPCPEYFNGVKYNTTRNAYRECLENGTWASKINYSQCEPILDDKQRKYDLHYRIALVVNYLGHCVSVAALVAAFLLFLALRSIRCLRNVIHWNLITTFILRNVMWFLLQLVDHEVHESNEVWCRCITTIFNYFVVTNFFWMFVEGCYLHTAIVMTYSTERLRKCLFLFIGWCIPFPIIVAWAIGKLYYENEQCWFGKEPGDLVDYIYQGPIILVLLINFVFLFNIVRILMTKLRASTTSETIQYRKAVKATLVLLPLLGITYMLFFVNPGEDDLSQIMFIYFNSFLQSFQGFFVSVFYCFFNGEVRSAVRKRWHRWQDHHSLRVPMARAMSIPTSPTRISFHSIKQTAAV

T2: corticotropin releasing factor 2 receptor
T2 sequence (Q13324 whole entry, species assumed, looked up): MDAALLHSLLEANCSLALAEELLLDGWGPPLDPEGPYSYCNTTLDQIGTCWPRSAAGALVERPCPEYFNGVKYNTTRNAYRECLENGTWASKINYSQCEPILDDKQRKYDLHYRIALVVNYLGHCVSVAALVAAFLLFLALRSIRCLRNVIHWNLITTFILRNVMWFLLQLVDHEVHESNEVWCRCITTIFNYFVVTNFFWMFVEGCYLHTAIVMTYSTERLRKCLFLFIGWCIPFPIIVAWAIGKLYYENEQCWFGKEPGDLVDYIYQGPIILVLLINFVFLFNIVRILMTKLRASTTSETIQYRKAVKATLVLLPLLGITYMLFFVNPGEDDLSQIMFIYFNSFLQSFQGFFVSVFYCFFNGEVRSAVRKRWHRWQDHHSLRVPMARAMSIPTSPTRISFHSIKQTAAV


How the values were obtained:
Test in all cases: cell-based or functional assay
[1] = target: T1, CRF2R
[2] = target: CRF1R
[3] = target: T2, corticotropin releasing factor 2 …
[4] = target: corticotropin releasing factor 1 receptor
Throughout, for CRF1R Emax %: reference of the scale not given here.
Throughout, for CRF1R Emax: reference of the scale not given here.
Throughout, for CRF2R Emax %: reference of the scale not given here.
Throughout, for CRF2R Emax: reference of the scale not given here.

Row | Binder | CRF2R EC50 [1] [nM] | CRF2R Emax % [1] [%] | CRF1R EC50 [2] [nM] | CRF1R Emax % [2] [%] | CRF2R EC50 [3] [nM] | CRF2R Emax [3] [%] | CRF1R EC50 [4] [nM] | CRF1R Emax [4] [%]
1 | NDDPPISIDLPFYLLRNMIEMARIENEREQAGLNAKYLAEV-NH2 [SEQ ID NO 261] | 100 | 95.3 | 274 | 100 | – | – | – | –
2 | NDDPPISIDLPLLLLRNMIEMARIENEREQAGLNAKYLAEV-NH2 [SEQ ID NO 268] | 100 | 59 | 1000 | 14.2 | – | – | – | –
3 | NDDPPISIDLPLQLLRNMIEMARIENEREQAGLNAKYLAEV-NH2 [SEQ ID NO 270] | 100 | 19.3 | 1000 | 7.85 | – | – | – | –
4 | NDDPPISIDLPLYLLRNMIEMARIENEREQAGLNAKYLAEV-NH2 [SEQ ID NO 271] | 48.1 | 69 | 815 | 80.7 | – | – | – | –
5 | NDDPPISIDLPLHLLRNMIEMARIENEREQAGLNAKYLAEV-NH2 [SEQ ID NO 259] | 100 | 65 | 820 | 83.6 | – | – | – | –
6 | NDDPPISIDLPYYLLRNMIEMARIENEREQAGLNAKYLAEV-NH2 [SEQ ID NO 267] | 100 | 44.2 | 1000 | 22.8 | – | – | – | –
7 | NDDPPISIDLPTYLLRNMIEMARIENEREQAGLNAKYLAEV-NH2 [SEQ ID NO 266] | 100 | 19.4 | 1000 | 4.45 | – | – | – | –
8 | DNPSLSIDLPYYLLRTLLELARTQSQRERAEQNAIIFASV-NH2 [SEQ ID NO 263] | 36.2 | 93 | 802 | 72 | – | – | – | –
9 | NDDPPISIDLPFQLLRNMIEMARIENEREQAGLNAKYLAEV-NH2 [SEQ ID NO 258] | 100 | 49.3 | 1000 | 23.6 | – | – | – | –
10 | ZGPPISIDLPFQLLRKMIEIEKQEKEKQQATTNARLLATV (C-terminal amide) [SEQ ID NO 21] | – | – | – | – | 8.46 | 96 | 908 | 88
11 | ZGPPISIDLPFQLLRKMIEIEKQEKEKQQATTNARLLDRV (C-terminal amide) [SEQ ID NO 22] | – | – | – | – | 8.33 | 100 | 1000 | 64
12 | ZGPPISIDLPFQLLRKMIEIEKQEKEKQQATTNARLLARV (C-terminal amide) [SEQ ID NO 23] | – | – | – | – | 10.2 | 100 | 1000 | 82
13 | NDDPPISIDLPLILLRNMIEMARIENEREQAGLNAKYLAEV-NH2 [SEQ ID NO 269] | 100 | 77.3 | 1000 | 44.3 | – | – | – | –
14 | ZGPPISIDVPFQLLRKMIEIEKQEKEKQQAANNRLLLDTI (C-terminal amide) [SEQ ID NO 256] | 12.6 | 100 | 254 | 100 | – | – | – | –
15 | ZGPPISIDLPAQLLRKMIEIEKQEKEKQQAANNRLLLDTI (C-terminal amide) [SEQ ID NO 211] | – | – | – | – | 59.5 | 100 | 826 | 37
16 | ZGPPISIDLPWQLLRKMIEIEKQEKEKQQAANNRLLLDTI (C-terminal amide) [SEQ ID NO 210] | – | – | – | – | 10.2 | 97 | 43.5 | 90
17 | ZGPPISIDLPWHLLRKMIEIEKQEKEKQQAANNRLLLDTI (C-terminal amide) [SEQ ID NO 209] | – | – | – | – | 7.4 | 93 | 26.4 | 80
18 | ZGPPISIDLPITLLRKMIEIEKQEKEKQQAANNRLLLDTI (C-terminal amide) [SEQ ID NO 24] | – | – | – | – | 43.1 | 100 | > 1000 | 18
19 | ZGPPISIDLPYHLLRKMIEIEKQEKEKQQAANNRLLLDTI (C-terminal amide) [SEQ ID NO 208] | – | – | – | – | 5.6 | 88 | 64.9 | 81
20 | NDDPPISIDLPFLLLRNMIEMARIENEREQAGLNAKYLAEV-NH2 [SEQ ID NO 260] | 100 | 89.3 | 834 | 89.7 | – | – | – | –
21 | NDDPPISIDLPFHLLRNMIEMARIENEREQAGLNAKYLAEV-NH2 [SEQ ID NO 262] | 100 | 92.2 | 408 | 100 | – | – | – | –
22 | NDDPPISIDLPQYLLRNMIEMARIENEREQAGLNAKYLAEV-NH2 [SEQ ID NO 265] | 100 | 23.4 | 1000 | 9.3 | – | – | – | –
23 | NDDPPISIDLPFFLLRNMIEMARIENEREQAGLNAKYLAEV-NH2 [SEQ ID NO 264] | 100 | 66.3 | 704 | 100 | – | – | – | –
24 | ZGPPISIDLPFQLLRKVIEIEKQEKEKQQAANNAELLAEI (not fully specified; C-terminal amide) [SEQ ID NO 272] | 23.3 | 100 | 1000 | 51.1 | – | – | – | –
25 | ZGPPISIDLPFQLLRKVIEIEKQEKEKQQAANNAKLLAKI (not fully specified; C-terminal amide) [SEQ ID NO 274] | 13.8 | 100 | 508 | 80.9 | – | – | – | –
26 | ZGPPISIDLPFQLLRKVIEIEKQEKEKQQAANNAHLLAHI (C-terminal amide) [SEQ ID NO 277] | 28.2 | 100 | 1000 | 39.9 | – | – | – | –
27 | ZGPPISIDLPFQLLRKVIEIEKQEKEKQQAANNAQLLAQI (not fully specified; C-terminal amide) [SEQ ID NO 276] | 22.1 | 100 | 1000 | 75.7 | – | – | – | –
28 | ZGPPISIDLPFQLLRKVIEIEKQEKEKQQAANNANLLANI (not fully specified; C-terminal amide) [SEQ ID NO 275] | 46.6 | 100 | 1000 | 38.3 | – | – | – | –
29 | ZGPPISIDLPFQLLRKVIEIEKQEKEKQQAANNAQLLAHI (not fully specified; C-terminal amide) [SEQ ID NO 273] | 31.3 | 100 | 1000 | 59.3 | – | – | – | –
30 | NDDPPISIDLPLFLLRNMIEMARIENEREQAGLNAKYLAEV-NH2 [SEQ ID NO 257] | 100 | 72.6 | 744 | 83.5 | – | – | – | –
